Data set [1] has as its target wild-type (WT) proapoA-I.
The target of data set [2] is proapoA-I-V156K.
Data set [3] addresses proapoA-I-A154E.
In data set [4] the target is proapoA-I-H155E.
Data set [5] has as its target proapoA-I-D157K.
The target of data set [6] is proapoA-I-A158E.
Sequence of proapoA-I-A158E (chain, as listed by the source A158E): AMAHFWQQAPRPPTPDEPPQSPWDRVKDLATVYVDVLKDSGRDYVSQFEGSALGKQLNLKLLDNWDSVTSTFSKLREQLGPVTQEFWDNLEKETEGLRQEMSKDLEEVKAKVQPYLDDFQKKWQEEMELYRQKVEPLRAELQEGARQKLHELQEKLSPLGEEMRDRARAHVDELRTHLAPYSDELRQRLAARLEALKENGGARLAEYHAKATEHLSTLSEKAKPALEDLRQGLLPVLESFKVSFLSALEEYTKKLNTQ

Sequence of proapoA-I-V156K (chain, as listed by the source V156K): as the sequence (chain, as listed by the source A158E) above, with V171K, E173A counted along it
Sequence of proapoA-I-D157K (chain, as listed by the source D157K): as the sequence (chain, as listed by the source A158E) above, with D172K, E173A counted along it
Sequence of proapoA-I-H155E (chain, as listed by the source H155E): as the sequence (chain, as listed by the source A158E) above, with H170E, E173A counted along it
Sequence of wild-type (WT) proapoA-I (chain, as listed by the source): as the sequence (chain, as listed by the source A158E) above, with E173A counted along it
Sequence of proapoA-I-A154E (chain, as listed by the source A154E): as the sequence (chain, as listed by the source A158E) above, with A169E, E173A counted along it

B1: LCAT (lecitin:cholesterol acyltransferase) (protein)
chain: FWLLNVLFPPHTTPKAELSNHTRPVILVPGCLGNQLEAKLDKPDVVNWMCYRKTEDFFTIWLDLNMFLPLGVDCWIDNTRVVYNRSSGLVSNAPGVQIRVPGFGKTYSVEYLDSSKLAGYLHTLVQNLVNNGYVRDETVRAAPYDWRLEPGQQEEYYRKLAGLVEEMHAAYGKPVFLIGHSLGCLHLLYFLLRQPQAWKDRFIDGFISLGAPWGGSIKPMLVLASGDNQGIPIMSSIKLKEEQRITTTSPWMFPSRMAWPEDHVFISTPSFNYTGRDFQRFFADLHFEEGWYMWLQSRDLLAGLPAPGVEVYCLYGVGLPTPRTYIYDHGFPYTDPVGVLYEDGDDTVATRSTELCGLWQGRQPQPVHLLPLHGIQHLNMVFSNLTLEHINAILLGAYRQGPPASPTASPEPPPPE
Regarding B1, the Apparent Vmax (LCAT activation by POPC-rHDL) in data set [1] was 3.3; in data set [2] it was 0.3; in data set [3] it was 3.5; in data set [4], 2.6; in data set [5], 1.8; in data set [6] it was 0.5.

The record behind these values is patent US20050287636.
